Source: US10597674B2, “HPPD variants and methods of use” (BASF Agricultural Solutions Seed, US LLC, priority 2015, dated 2020)
Read-outs that look alike come from different tables or passages of the source.

Tests used:
[1] = test system: HPPD polypeptides (wild-type SEQ ID NO:1 and mutants); settings: high substrate concentration; for Residual activity: kapp normalized to kapp without inhibitor; for Residual turnover: total change in signal normalized to no inhibitor
[2] = test system: E. coli cells expressing an HPPD polypeptide; test: Brown color bioassay in liquid culture, residual brown color formation (BCF), OD440 after 96 hours; assay type: cell-based
In short: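 E. coli expressing HPPD variants were grown at 30 degrees Celsius from OD600 0.3-0.5 in LB with 5 mM HPP, with or without herbicide (e.g. Cmpd. 1, 1000 μM). After 96 hours, supernatant OD440 was measured; residual brown colour formation compares pigment with and without inhibitor.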

[3] = test system: transgenic soybean T0 events; test: Additional greenhouse trials of T0 soybean events, leaf damage score 0-100 as percentiles; assay type: in vivo; settings: wild-type plants, 300 g AI/ha, five days, scale 0-100
In short: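 Independent T0 events (21 to 94 per construct, single cassette insertion) expressing mutant HPPD were sprayed with HPPD inhibitor herbicide in the greenhouse. Leaf damage scored 5 days after application from 0 (no damage) to 100 (complete bleaching). Scores reported as percentile distributions (25th, median, 75th) per construct.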

[4] = in the presence of Cmpd. 1, 15 μM inhibitor
[5] = in the presence of Cmpd. 2, 15 μM inhibitor
[6] = in the presence of diketonitrile (DKN), 60 μM inhibitor
[7] = in the presence of mesotrione (MST), 60 μM inhibitor

CSc1c(C(F)(F)F)ccc(C(=O)Nc2nnnn2C)c1Cl [Cmpd. 1, 2-chloro-3-(methylsulfanyl)-N-(1-methyl-1H-tetrazol-5-yl)-4-(trifluoromethyl)benzamide, reference compound]
Residual activity [1, 4]: 6% | Residual turnover [1, 4]: 6% | Residual activity [1, 5]: 8% | Residual turnover [1, 5]: 8% | Residual activity [1, 6]: 7% | Residual turnover [1, 6]: 8% | Residual activity [1, 7]: 6% | Residual turnover [1, 7]: 8% | Control BCF OD440nm ([2]; brown color formation in absence of Cmpd. 1, culture supernatant after 96 hours, 5 mM HPP): 2.66 | Residual BCF OD440nm [%] ([2]; brown color formation with Cmpd. 1 (1000 μM) relative to without, after 96 hours): 15% | damage score [3]: 95-100
